The results in this text go back to the DeepSol protein solubility set.

The data set in a line: soluble on expression in E. coli; label from the status in PepcDB or PDB records.
On to “CLAEGTRIFDPVTGTTHRIEDVVYGRKPIHVVAAAKDGTLHARPVVSWFDQGTRDVIGLRIAGGAIVWATPDHKVLTEYGWRAAGELRKGDRVAVRDVETGELRYSVIREVLPTRRARTFDLEVEELHTLVAEGVVVHN”, for which the “soluble on expression in E. coli” value was “soluble”.

As for “CPVNWVEHERSCYWFSRSGKAWADADNYCRLEDAHLVVVTSWEEQKFVQHHIGPVNTWMGLHDQNGPWKWVDGTDYETGFKNWRPEQPDDWYGHGLGGGEDCAHFTDDGRWNDDVCQRPYRWVCETEL”, the “soluble on expression in E. coli” value is on record as “soluble”. On to “DALHDQASALFKPIPEQVTELRGQPISEQQRELGKKLFFDPRLSRSHVLSCNTCHNVGTGGADNVPTSVGHGWQKGPRNSPTVFNAVFNAAQFWDGRAKDLGEQAKGPIQNSVEMHSTPQLVEQTLGSIPEYVDAFRKAFPKAGKPVSFDNMALAIEAYEATLVTPDSPFDLYLKGDDKALDAQQKKGLKAFMDSGCSACHNGINLGGQAYFPFGLVKKPDASVLPSGDKGRFAVTKTQSDEYVFRAAPLRNVALTAPYFHSGQVWELKDAVAIMGNAQLGKQLAPDDVENIVAFLHSLSGKQPRVEYPLLPASTETTPRPAE”, for which the “soluble on expression in E. coli” value is “soluble”. Take “DDDDEEEDDFVYFNFNKEKEEKNKNSIHPNDFQIYNSLKYKYHPEYQYLNIIYDIMMNGNKQSDRTGVGVLSKFGYIMKFDLSQYFPLLTTKKLFLRGIIEELLWFIRGETNGNTLLNKNVRIWEANGTREFLDNRKLFHREVNDLGPIYGFQWRHFGAEYTNMYDNYENKGVDQLKNIINLIKNDPTSRRILLCAWNVKDLDQMALPPCHILCQFYVFDGKLSCIMYQRSCDLGLGVPFNIASYSIFTHMIAQVCNLQPAQFIHVLGNAHVYNNHIDSLKIQLNRIPYPFPTLKLNPDIKNIEDFTISDFTIQNYVHHEKISMDMAA”: the “soluble on expression in E. coli” value is on record as “soluble”.

For “DDDGEHGGRRAALVVTDPLTRTECSACHMAYPAALLPARSWTALMADLPNHFGEDASLDEASRGQIESYLVANAADSSGAGRALRGLVQTDTPLRISELPWFKRKHADEVSPRMLEKARSMSNCAACHTGAERGLFDDD”, the “soluble on expression in E. coli” value is “soluble”. As for “DDFVSLGTSGWHARVVSTVSDPSEVRQFALPDGGILRIASVLSVGGTADWARSVLLPGVSAKEADALMLQRPRLATGLLSLPSIQGESFPVRSHSVGGCILGMRGNQDPLTLYTAVIEGICMTLAHDIKPGGILPATGGGARSVPWMRILASVTNRNIHVTVSEDAALHGAASLAAYATSAEYLPTLAARAIVEIEPEPEVVASFEPLIAKHLELFRFAAALSY”, the entry is “not soluble”; as for “DDIKVAVVGAMSGPIAQWGDMEFNGARQAIKDINAKGGIKGDKLVGVEYDDACDPKQAVAVANKIVNDGIKYVIGHLCSSSTQPASDIYEDEGILMISPGATNPELTQRGYQHIMRTAGLDSSQGPTAAKYILETVKPQRIAIIHDKQQYGEGLARSVQDGLKAANANVVFFDGITAGEKDFSALIARLKKENIDFVYYGGYYPEMGQMLRQARSVGLKTQFMGPEGVGNASLSNIAGDAAEGMLVTMPKRYDQDPANQGIVDALKADKKDPSGPYVWITYAAVQSLATALERTGSDEPLALVKDLKANGANTVIGPLNWDEKGDLKGFDFGVFQWHADGSSTKAK”, “soluble”. “DEFQWKGLPVVKSGLDVGGMPTGTRYHRSPAWPEEQPGETHAPAPFGSGDKRYTFSQTEMLVNGLKPYTEPTAGVPPQLLSRAVTHVRSYIETIIGTHRSPVLTYHQACELLERTTSCGPFVQGLKGDYWDEEQQQYTGVLANHLEQAWDKANKGIAPRNAYKLALKDELRPIEKNKAGKRRLLWGCDAATTLIATAAFKAVATRLQVVTPMTPVAVGINMDSVQMQVMNDSLKGGVLYCLDYSKWDSTQNPAVTAASLAILERFAEPHPIVSCAIEALSSPAEGYVNDIKFVTRGGLPSGMPFTSVVNSINHMIYVAAAILQAYESHNVPYTGNVFQVETIHTYGDDCMYSVCPATASIFHTVLANLTSYGLKPTAADKSDAIKPTNTPVFLKRTFTQTPHGIRALLDITSITRQFYWLKANRTSDPSSPPAFDRQARSAQLENALAYASQHGPVMFDTVRQIAIKTAQGEGLVLVNTNYDQALATYNAWFIGGTVPDPVGHTEGTHKIVFEME”: the “soluble on expression in E. coli” value was “soluble”. Turning to “DERGEVVDGDKLIGALAMHLKNSHTLEKPLAVATVMSNLALEEFLAKAKIKLLRAGVGDKYVLEMMQKEGANFGGEQSGHLIFSDFAKTGDGLVSALQTMAFVLRSGERASRALNIFDLY”, the “soluble on expression in E. coli” value is on record as “not soluble”.

Take “DFDFEGNLALFDKAAVFEEIDTYERRSGTRSRGIPNERPTRYRHDENILESEPIVYRRIIVPHNVSKEFCTDSGLVVPSISYELHKKLLSVAEKHGLTLERRLEMTGVCASQMALTLLGGPNRLNPKNVHQRPTVALLCGPHVKGAQGISCGRHLANHDVQVILFLPNFVKMLESITNELSLFSKTQGQQVSSLKDLPTSPVDLVINCLDCPENVFLRDQPWYKAAVAWANQNRAPVLSIDPPVHEVEQGIDAKWSLALGLPLPLGEHAGRIYLCDIGIPQQVFQEVGINYHSPFGCKFVIPLHSA”: the “soluble on expression in E. coli” value was “soluble”.

On to “DFKLDFKDIKGQEKAKRACMIAALGMHNILFEGSPGSGKSMCAKRLVYIMPPQSLSEILMQNAYMSLDSKDCEFTKIRAFRHPHHTSTRASIFGGGTKNARIGEVALANGGVLFFDEFPHFNKQIIESLREPLEDHKIHISRVNSKITYETKFSFIAAQNPCPCGNL”, for which the “soluble on expression in E. coli” value is listed as “not soluble”. With “DGFRIAFISDLHYKSLFKEKGLESLVRLLNAQHADVLLMGGDYQEGCQYVPELFAALAKVKTPMGTYGVMGNNDYERCHDEIIREMQRYGMRPLEHQIDTLRRDGAQIILAGVRNPFDLANNGVSPTLSLSPSDFVILLVHTPDYAEDVSVANSDLVLAGHTHGGQVRILGYAPIIPSHYGSRF”, the “soluble on expression in E. coli” value is reported as “not soluble”.

Consider “DIRPSKLLTWCQQQTEGYQHVNVTDLTTSWRSGLALCAIIHRFRPELINFDSLNEDDAVENNQLAFDVAEREFGIPPVTTGKEMASAQEPDKLSMVMYLSKFYELFRGTPLRPV”, for which the “soluble on expression in E. coli” value is listed as “soluble”. Consider “DKIIMDPHAVLGPVDPQLGQYPAPSIVRAVEKKGVDKVDDQTLILADVAEKAIRQVRDFIFNLLKDKYGEEKAKELAQVLTEGRWTHDYPITVEEAKKLGLNVSTDVPEEVYALMELYKQPIRQRGTVEFVPYPMKQEGK”, for which the “soluble on expression in E. coli” value was “not soluble”. As for “DKKIMVIVNTVDKAITLYEKLRDLSPCLIHSRFKIGDRDEKLRKECNIIIATQVIEVGVNISSEVMITEQAPITSIVQRVGRLLRDNKKDKGELYIWKSGNYYPYDKDEVENTIKELESKKNDISL”, the entry is “not soluble”; as for “DLKQREQALEDSRQRYQTLLQAAPDPIFVADAETGEIVEANAAAEELRGQPRDDIIGRHQTELHPEEAGGLYEDVFEQAFDDASTITELPDGTQPELATPDGETVPIEISAAAVSLPDGPVLFGVFRDVS”, “not soluble”. For “DLYFQGGSGMQCEEKLEVFENGFKDEKFNVEVKFYGNDARKVLLAMIYELYLPEYGREYVYPFECAKEFWNIYLEGEEIQDEEFQLKPIKFTSEQVIKKLQEEIKKIKPPLEIKIEEAKIYKTKEGYLAVGNYFILDPRGRLFIFNKPSIANKILKYIWKW”, the “soluble on expression in E. coli” value is reported as “soluble”. Under “DNIITGRMKPLHWREMKEVDPNRVTLIDARPRQAYEVEHIPGAISMPVEEIRARIGEIPHDKPIYVYCAVGMRGYFASNILRQCGFSNVRNLIGGYRLYSTITADYSSAGQPATAQLPAKDSPSSHTQVPE” stands “not soluble”. As for “DNNRWIPIKPGTDSALVLGMIQWIIENQRYNKTFLAQPGANAMKRAGTAHWCNATHLVISDEQHPRNGTFLRASDLNLPFEGEALSDSDPYVIVEEQSGQFGVHTQTEEATLFVDKTVSLASGKVRVKSSLQRLKEEAFKYSLAFYSQQCEIPVEQIAELAKRFTSCGTKAVVDTHGGNMHTNGFYNSFTIMMLNALIGNINMKGGAMAKAGGYPTSAAGPRYDFTKFAGKVGPKGVFLSRSKFPYHKTSEYKRRVEAGKSPYPTRAPWYPFAAPLLTEHLSAAIDGYPYRVKAWINHMANPMYGVPGLKTLLEDKLKDPKQLGLIVSVDAFINETTALSDYIVPDTVTYESWGMATPWHDVPVKTITARWPIVEARTEKTADGRSICLENFLIDVAKKMQLGGFGDNAIQDAQGNWHALHSAEDFYLRSAANLAYVKGGVPEVSAEDIAWSGLERLMPAMQSTLTADEMKRVAFIFARGGRFENATEAYQGEQMKHKWTRPVAIWNERVGSARNTMTGDFYTGCPTWHPQKLADGTPMEEQFPSSEWPFSLTNFKSNIHSAVSNLSPRLNSIKGVNPVYIHPIDAERAGIKTGDEFVIETPSASTKALAMIVSGIRPGTLGFEHGFGHTELGQRSHWIGDKQQPVKTRSQDGVNINDIGLIDPTREGKGVLLDWVVGAAARQSLPAKIRKA”, the entry is “not soluble”; as for “DPFSNLTELANALKEKYQLKNVTVAFSQTNDYSEISKQISQSAAEYLEEIIHDDDILGVSWGTTMYKIAQKLSPQKAEIKVVQLKGGVSHSDVNTYAAETLALFGAAYDTAPVSLPLPVVLDNPLAKQMVEADRHIKNIIELGKKANIAIFTVGTVREEALLFRLGYFSDEEKIRLKEKAVGDICSRFFTINGEIADEKMNERTIGIDLQDLKQKETAILVAGGERKIKAIHGALRGGYANHFITDQYTAKQLLEQNFS”, “not soluble”; as for “DPIGHLNKLPVAVVNSDTGVTKEGKTINAGEQITHSLVDQQQAKFIEVSADQARKGIADGTYYFAIEFPTDFSQAATSVKDPQPHQAKLNAVYNNANGFLATMLGNQVVGRVLAAVNENLGSQVANQLLVGFNTIGQGLGAAADGAGQLADGSHKAHDGADKLADGSTQLNNGLQQANDGAHKLYDGAGQLDQGIHTASNGADALADGLTKLNAATDTLGNGAGQVSAGVDKLVGVAQQASDAQAQLTVPLVNLSAQLRATGIPQAIDLANSADGIINSINAAGIGPQSDMMTQLSKLRNGASEIHRQLSDPTAQYRAGINSATEGAQKLSTGLHQLSDGSEKLVIGTKTLADGTTKLSAGSQQLTVGASQLSSGLVRLDEGASELSLKLGESKDKIPQFPDDTIADSARNVSTPVAENVARDSLS”, “not soluble”. As for “DQALSGQLRIGASDTIGNQVAPYLLSEFRQQTNHRSQSLFISNSAQICDMLTDYELDIALIEGKTLHPELQSTQFSEDEMCVICAPDYPAAHEGPVNLTELENSEWILREAGSGSREFFMRVVAPRLEHWHEAFQLNTTEAL”, the entry is “not soluble”; as for “DRILAQERLCRSEERYRLLFEEMMSGCALHELICDRDGNPADYRFLAVNGAFERMTGLRAADIVGKTVLEVMPGTERHWIERYGDVALSGRSAEFEEYAGAIGRYYSVRAYCPERGKFAAVFNDIT”, “not soluble”. Turning to “DRKMNRKMISIVENDGNGFREVFRYDYERKNFVPDNLKEITSIQLERSRELLGWSRDKLYREIENRLLLIRGLAEKGVYDYDTLARELVKYYTNGD”, the “soluble on expression in E. coli” value is on record as “not soluble”. Regarding “DRSVIYPSEYFFLKGGNAFWRFGDSMEAAFQTLPPYTATADKHLILQTSYRASRLLVNFLPFVFLKTNDEALHFKARWDMVSRKPYLEMGYSES”, the “soluble on expression in E. coli” value is “not soluble”. Under “DSLGNLVDGDQIIYIIAKDRHQRGVLHGGVVGTLMSNYGLELAITSLGVPFQRSKVGDRYVLETLREKDWKIGGETSGHIVCLDKTTTGDGIVAALQVLSIMVKQNKALHELTAGIQLL” stands “not soluble”; under “DTIRWATEQAIANGTGEREYIKKLEPMLKELGWWGKAKDENGNEVQLGSPRRLRTILRTNKITAYHAARYAQQMENVDEQPYWRYVAVNDSRTRASHLALHGKIYRADDPIWQTMYPPNDWGCRCRVE”, “not soluble”.
